This note sets out measurements from paper PMC10902354, “Deficiency in PHD2-mediated hydroxylation of HIF2α underlies Pacak-Zhuang syndrome” (Communications Biology, 2024).

B1: HIF2α-CODD G537W peptide (peptide, UniProt Q99814 523-542, looked up)
peptide: Ac-ELDLETLAPYIPMDWEDFQL-NH2
notes: HIF2α (EPAS1) CODD peptide, human, as m3 with the disease mutation G537W (Class 2); also called HIF2α G537W; source: synthetic peptide (Genscript, ≥95% purity)
B2: HIF2α-CODD G537R peptide (peptide, UniProt Q99814 523-542, looked up)
peptide: Ac-ELDLETLAPYIPMDREDFQL-NH2
notes: HIF2α (EPAS1) CODD peptide, human, as m3 with the disease mutation G537R (Class 2); also called HIF2α G537R; source: synthetic peptide (Genscript, ≥95% purity)
B3: HIF2α-CODD D539Y peptide (peptide, UniProt Q99814 523-542, looked up)
peptide: Ac-ELDLETLAPYIPMDGEYFQL-NH2
notes: HIF2α (EPAS1) CODD peptide, human, as m3 with the disease mutation D539Y (Class 1); also called HIF2α D539Y; source: synthetic peptide (Genscript, ≥95% purity)
B4: HIF2α-CODD I533V peptide (peptide, UniProt Q99814 523-542, looked up)
peptide: Ac-ELDLETLAPYVPMDGEDFQL-NH2
notes: HIF2α (EPAS1) CODD peptide, human, as m3 with the disease mutation I533V (Class 2); also called HIF2α I533V; source: synthetic peptide (Genscript, ≥95% purity)
B5: HIF2α-CODD D539N peptide (peptide, UniProt Q99814 523-542, looked up)
peptide: Ac-ELDLETLAPYIPMDGENFQL-NH2
notes: HIF2α (EPAS1) CODD peptide, human, as m3 with the disease mutation D539N (Class 1); also called HIF2α D539N; source: synthetic peptide (Genscript, ≥95% purity)
B6: HIF2α-CODD M535I peptide (peptide, UniProt Q99814 523-542, looked up)
peptide: Ac-ELDLETLAPYIPIDGEDFQL-NH2
notes: HIF2α (EPAS1) CODD peptide, human, as m3 with the disease mutation M535I (Class 2); also called HIF2α M535I; source: synthetic peptide (Genscript, ≥95% purity)
B7: HIF2α-CODD M535T peptide (peptide, UniProt Q99814 523-542, looked up)
peptide: Ac-ELDLETLAPYIPTDGEDFQL-NH2
notes: HIF2α (EPAS1) CODD peptide, human, as m3 with the disease mutation M535T (Class 2); also called HIF2α M535T; source: synthetic peptide (Genscript, ≥95% purity)
B8: HIF2α-CODD F540L peptide (peptide, UniProt Q99814 523-542, looked up)
peptide: Ac-ELDLETLAPYIPMDGEDLQL-NH2
notes: HIF2α (EPAS1) CODD peptide, human, as m3 with the disease mutation F540L (Class 2); also called HIF2α F540L; source: synthetic peptide (Genscript, ≥95% purity)
B9: HIF2α-CODD P534R peptide (peptide, UniProt Q99814 523-542, looked up)
peptide: Ac-ELDLETLAPYIRMDGEDFQL-NH2
notes: HIF2α (EPAS1) CODD peptide, human, as m3 with the disease mutation P534R (Class 2); also called HIF2α P534R; source: synthetic peptide (Genscript, ≥95% purity)
B10: HIF2α-CODD Y532C peptide (peptide, UniProt Q99814 523-542, looked up)
peptide: Ac-ELDLETLAPCIPMDGEDFQL-NH2
notes: HIF2α (EPAS1) CODD peptide, human, as m3 with the disease mutation Y532C; also called HIF2α Y532C; source: synthetic peptide (Genscript, ≥95% purity)
B11: HIF2α-CODD T528M peptide (peptide, UniProt Q99814 523-542, looked up)
peptide: Ac-ELDLEMLAPYIPMDGEDFQL-NH2
notes: HIF2α (EPAS1) CODD peptide, human, as m3 with T528M; also called HIF2α T528M; source: synthetic peptide (Genscript, ≥95% purity)

The target in this assay is T1, Alexa 647 labeled PHD2 (catalytic / prolyl-hydroxylase domain, residues 181-426) (human, UniProt Q9GZT9 181-426, Alexa Fluor 647 N-hydroxysuccinimide ester dye, 1-2 dye molecules per protein molecule).
T1 construct: PHD2, prolyl-hydroxylase domain (catalytic domain), residues 181-426, from pET-46-HIS6-PHD2; Same construct as m2, dye-labeled for MST; also called PHD2-647; source: E. coli BL21(DE3), purified (Ni-NTA, thrombin cleavage, Superdex 75), labeled with Alexa Fluor 647 NHS ester
T1 sequence (Q9GZT9 181-426): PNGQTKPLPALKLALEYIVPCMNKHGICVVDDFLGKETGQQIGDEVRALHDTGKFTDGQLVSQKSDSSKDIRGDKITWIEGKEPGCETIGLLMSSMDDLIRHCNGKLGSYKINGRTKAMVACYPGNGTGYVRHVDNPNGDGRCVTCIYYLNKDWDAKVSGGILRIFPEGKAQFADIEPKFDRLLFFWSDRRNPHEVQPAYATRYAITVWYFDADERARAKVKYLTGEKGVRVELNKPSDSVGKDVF
The experiment in a line: MST; 25 nM Alexa 647 labeled PHD2, unlabeled peptide in 16 two-fold dilutions; room temperature; MST Buffer 50 mM Tris-HCl pH 7.5, 1 mM NOG, 10 µM FeSO4, 5 mg/ml BSA mixed 1:1 with peptide in 50 mM Tris-HCl pH 8.0; 1:1 Kd model; triplicate. As to conditions: both partners purified.
With B1, binding was put at a Kd of 83 ± 9 µM.
Next, B2: 175 ± 20 µM; B3: 381 ± 50 µM.
Next, B4: 167 ± 29 µM; B5: 760 ± 274 µM.
Next, B6: 154 ± 17 µM.
The molecule B7 gave a Kd of 203 ± 25 µM.
Molecule B8 registered a Kd of 229 ± 25 µM.
Next, B9: 153 ± 10 µM; B10: 345 ± 247 µM.
With B11 the figure was 23 ± 2 µM.
